Data taken from the supplement of paper PMC10126150.
± gives the standard deviation of the averaged measurements.

System: ATP
Experiment: switch fluorescence ratio, 500 uM ATP over buffer (Cy3 cluster intensity, sum of 5 cycles each) (fold (ratio)); higher = stronger signal-on switching upon ATP binding; sequences stand for … in TCGTCGGCAGCGTCAGATGTGTATAAGAGACAGTTTTTTTTTTTTTTTTTTTTTTTTT…TC
Conditions: aptamer strand: ATP DNA aptamer (quencher-CACCTGGGGGAGTATTGCGGAGGAAGG + anchor), 100 nM annealed; ATP concentration: 500 uM
Procedure, shortened: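 Cy3-labelled switching-strand clusters on a modified Illumina MiSeq flow-cell were annealed to 100 nM quencher-labelled ATP aptamer, imaged in selection buffer, then imaged after 15 min with 500 uM ATP at 22 °C. Five buffer/ATP cycles ran, with NaOH stripping and re-annealing between them. The fluorescence ratio is summed target-cycle over summed buffer-cycle Cy3 intensity per cluster, averaged per switch-domain sequence. Clusters outside 100-1000 RFU were excluded.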
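Also: ATP exposure 15 min at 22 °C before imaging.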

Sequence	switch fluorescence ratio
ATTTAAAATG	0.994 ± 0.033
ATCGGTGACA	1 ± 0.035
CGGAGGGATC	1.12 ± 0.037
TCTGTCCCTT	1.01 ± 0.024
CAGAGGATAT	1.021 ± 0.01
TGGTACATTA	1.34 ± 0.46
TTAATGGGGC	1.01 ± 0.061
AGGGTGTGCA	0.999 ± 0.049
CGTCCCAGCT	1.12 ± 0.018
TGGTTTAATA	0.9853 ± 0.0079
TTGGGTACAT	1.02 ± 0.011
TCTGATATAG	1 ± 0.003
CGGGACGCGA	1.28 ± 0.043
TTAATTGGGG	1.06 ± 0.1
TTCAGCTGTT	1.01 ± 0.011
AAAAGGGGCG	1 ± 0.019
GAGGTTTCAT	0.997 ± 0.016
TAAACAAACG	1.12 ± 0.028
CCTGGGGCAG	1.17 ± 0.093
ACACGCAAAA	1.571 ± 0.0081
GTGTACCGGA	0.9813 ± 0.0017
AGTGTGCAGG	0.992 ± 0.017
TGGGGGGACC	1.03 ± 0.05
ATTGCTTTTG	0.99799 ± 0.00028
CAAACCAGGA	1.09 ± 0.07
GAGGTATGGA	0.9842 ± 0.0019

Sequence	switch fluorescence ratio
TGTTCCGCTT	2.16 ± 0.17
GGGCGGTTTT	0.993 ± 0.043
ATGTTTTTAC	0.949 ± 0.029
ATTGAAGGCA	0.966 ± 0.011
TTATAAAAGT	0.962 ± 0.011
CCTTCGGAGT	3.99 ± 2.3
TCAAGTAAAG	1.14 ± 0.23
AACCGGGGTT	0.996 ± 0.046
ACGTATGATA	1.16 ± 0.056
AAATAAATTG	0.999 ± 0.044
GGAAACGATT	1.01 ± 0.035
GACGAAAATC	1.2 ± 0.032
TCCATATGCT	0.9941 ± 0.0093
TATGGTAGC	0.989 ± 0.048
TTACGGATTC	1.39 ± 0.5
CGAAACGGGG	0.983 ± 0.042
CTTTAATCAA	0.991 ± 0.013
TGTGGTAAGT	1.01 ± 0.062
AGTTTTGAAA	0.9909 ± 0.0021
CGTGTGAGAG	0.986 ± 0.021
CGGTTGGGGG	0.962 ± 0.033
ACAAACGTTC	1.34 ± 0.13
GGGGGCGTAC	1.06 ± 0.083
GGAGTTAGTC	1.01 ± 0.021
CTTTGGGTTG	1 ± 0.02
TTTGTGGTAG	0.984 ± 0.011

Sequence	switch fluorescence ratio
GGGGGAACCG	0.994 ± 0.08
TGGTCAGAGT	1.01 ± 0.023
TGTCCGCCTG	1.07 ± 0.019
GATCGCAGCG	0.986 ± 0.032
TTTTTTAAAT	0.987 ± 0.022
AAGAGTGTCG	0.921 ± 0.056
GTGTACTCAT	1.01 ± 0.035
ATACTATTAT	1.03 ± 0.013
TCATTTTTGC	0.979 ± 0.052
TAGTATTTGC	1.14 ± 0.13
GTTAGTGGCA	0.984 ± 0.012
GGTACGTTTT	1.03 ± 0.024
CAGTGAAAAA	1.06 ± 0.089
TTTTGTCGCG	0.9735 ± 0.0032
ATGAGAATGC	1.024 ± 0.0063
CAGTTCCCGC	1.16 ± 0.055
CAGCTCTGGG	1 ± 0.022
AACAGCTGTA	1.05 ± 0.062
TGGATGTCTG	0.978 ± 0.044
GCTGTATGAG	0.985 ± 0.029
ATGAATCTAA	1.01 ± 0.046
AAAGTATATG	0.983 ± 0.029
GGGGAATTAT	1.03 ± 0.0058
AAACGGGGCG	0.9719 ± 0.0047
